Measured values taken from PMC10300122, “K235 acetylation couples with PSPC1 to regulate the m^6A demethylation activity of ALKBH5 and tumorigenesis” (Nature Communications, 2023).

T1: recombinant PSPC1-His (UniProt Q8WXF1 1-523)
T1 construct: paraspeckle component 1 (PSPC1) cloned into the pET 26b vector; source: E. coli BL21 (DE3), purified (His-tag Protein Purification Kit)
T1 sequence (looked up): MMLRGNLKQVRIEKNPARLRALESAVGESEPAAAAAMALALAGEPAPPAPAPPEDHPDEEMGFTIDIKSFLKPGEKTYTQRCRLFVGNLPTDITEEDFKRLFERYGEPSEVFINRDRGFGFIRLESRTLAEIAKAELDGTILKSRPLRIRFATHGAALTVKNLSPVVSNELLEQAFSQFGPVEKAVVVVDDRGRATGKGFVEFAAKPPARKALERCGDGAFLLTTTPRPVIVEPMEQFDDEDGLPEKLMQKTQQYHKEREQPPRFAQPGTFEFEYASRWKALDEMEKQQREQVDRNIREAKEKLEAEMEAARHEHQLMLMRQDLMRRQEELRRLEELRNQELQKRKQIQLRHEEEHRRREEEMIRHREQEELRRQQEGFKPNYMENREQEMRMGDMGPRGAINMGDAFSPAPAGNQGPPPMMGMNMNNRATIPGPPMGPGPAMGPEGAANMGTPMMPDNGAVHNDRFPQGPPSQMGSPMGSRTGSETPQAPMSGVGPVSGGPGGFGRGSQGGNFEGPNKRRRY


Target: T1, recombinant PSPC1-His
Assay: pull-down; GST pull-down: GST-ALKBH5 on glutathione beads (untreated or K235-acetylated by immunopurified KAT8) incubated with PSPC1-His at 4 °C for 1 h; washed with 20 mM HEPES pH 7.6, 0.1 M KCl, 0.1 μM EDTA, 10% glycerol, 0.02% NP-40; western blot
Details: both partners purified

binding result	Binder
binds	recombinant GST-ALKBH5 (enzyme, UniProt Q6P6C2 1-394, looked up, AlkB homolog 5 (ALKBH5) cloned into the pGEX vector; also called recombinant ALKBH5; source: E. coli BL21 (DE3), purified (Glutathione Sepharose)) MAAASGYTDLREKLKSMTSRDNYKAGSREAAAAAAAAVAAAAAAAAAAEPYPVSGAKRKYQEDSDPERSDYEEQQLQKEEEARKVKSGIRQMRLFSQDECAKIEARIDEVVSRAEKGLYNEHTVDRAPLRNKYFFGEGYTYGAQLQKRGPGQERLYPPGDVDEIPEWVHQLVIQKLVEHRVIPEGFVNSAVINDYQPGGCIVSHVDPIHIFERPIVSVSFFSDSALCFGCKFQFKPIRVSEPVLSLPVRRGSVTVLSGYAADEITHCIRPQDIKERRAVIILRKTRLDAPRLETKSLSSSVLPPSYASDRLSGNNRDPALKPKRSHRKADPDAAHRPRILEMDKEENRRSVLLPTHRRRGSFSSENYWRKSYESSEDCSEAAGSPARKVKMRRH
binds	recombinant K235-acetylated GST-ALKBH5 (enzyme, UniProt Q6P6C2 1-394, looked up, acetyl-lysine at 235, AlkB homolog 5 (ALKBH5) cloned into the pGEX vector; The same construct as m6 after treatment with KAT8; source: E. coli BL21 (DE3), purified (Glutathione Sepharose), then K235-acetylated by immunopurified KAT8) MAAASGYTDLREKLKSMTSRDNYKAGSREAAAAAAAAVAAAAAAAAAAEPYPVSGAKRKYQEDSDPERSDYEEQQLQKEEEARKVKSGIRQMRLFSQDECAKIEARIDEVVSRAEKGLYNEHTVDRAPLRNKYFFGEGYTYGAQLQKRGPGQERLYPPGDVDEIPEWVHQLVIQKLVEHRVIPEGFVNSAVINDYQPGGCIVSHVDPIHIFERPIVSVSFFSDSALCFGCKFQFKPIRVSEPVLSLPVRRGSVTVLSGYAADEITHCIRPQDIKERRAVIILRKTRLDAPRLETKSLSSSVLPPSYASDRLSGNNRDPALKPKRSHRKADPDAAHRPRILEMDKEENRRSVLLPTHRRRGSFSSENYWRKSYESSEDCSEAAGSPARKVKMRRH
